Our source for the Kd values is article PMC10361524.

Test [1] deals with T1, IL-24B4 displayed on the yeast surface (version with an N-terminal linker of 17 amino acids, fused to a fluorescent protein) (human). The test can be described thus: flow cytometry on cells; yeast surface display of IL-24B4 (suspension enriched with 0.5% IL-24S yeast); CF640R-labelled IL-20R2D variants at 500, 100, 20, 4 and 0.1 nM in PBSB with 10 nM bilirubin, overnight at 4°C; apparent Kd (affinity and avidity); not irradiated. For orientation: In flow cytometry, cells or beads pass a laser one at a time.

The target of test [2] is T1, IL-24B4 displayed on the yeast surface …. The test is described as follows: flow cytometry on cells; as a3, but the labelled IL-20R2D variant UV irradiated (365 nm); apparent Kd.
Test [3] addresses IL-20R2D (human), Q6UXL0. The test can be described thus: MST; IL-20R2D variants labelled with RED-tris-NTA dye on the His tag, held constant at 50 nM; unlabelled IL-24B4 titrated; 50 mM Tris pH 8, 100 mM NaCl, 0.02% pluronic F127; not irradiated.
Test [4] addresses T2, IL-20R2D Y70NBY/Y74NBY (human), Q6UXL0.
T2 chain: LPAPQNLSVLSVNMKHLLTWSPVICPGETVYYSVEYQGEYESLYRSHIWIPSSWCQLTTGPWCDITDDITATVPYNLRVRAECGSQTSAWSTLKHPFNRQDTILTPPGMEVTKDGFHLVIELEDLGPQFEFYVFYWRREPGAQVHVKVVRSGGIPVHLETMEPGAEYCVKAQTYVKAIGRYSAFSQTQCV
The description is as above.

Test [5] concerns the target T3, IL-20R2D Y70NBY (human), Q6UXL0.
T3 chain: T2 chain
Described as above.

Test [6] has as its target T4, IL-20R2D Y74NBY (human), Q6UXL0.
T4 chain: T2 chain
The test is described as above.

For test [7], the target named is IL-20R2D (human), Q6UXL0. The test is described as follows: MST; as a1, but the IL-20R2D variant irradiated at 365 nm (100 mW, 5 min) before use.
Test [8] concerns the target IL-20R2D Y70NBY + UV (human), Q6UXL0. Described as above.
The target in test [9] is IL-20R2D (human), Q6UXL0. The test can be described thus: MST; IL-20R2D variants labelled with RED-tris-NTA dye on the His tag, held constant at 50 nM; unlabelled IL-24B4 titrated; 50 mM Tris pH 8, 100 mM NaCl, 0.02% pluronic F127; not irradiated. The source holds these as a separate data set.

T1 sequence (main, as listed by the source): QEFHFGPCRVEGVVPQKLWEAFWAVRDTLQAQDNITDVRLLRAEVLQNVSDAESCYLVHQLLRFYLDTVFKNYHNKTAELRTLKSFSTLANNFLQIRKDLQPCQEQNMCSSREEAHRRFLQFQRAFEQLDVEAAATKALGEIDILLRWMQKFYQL

B1: IL-20R2D Y70NBY, Q6UXL0 30-233 (receptor)
chain: T2 chain
modifications: here or on the partner: ortho-nitrobenzyl-tyrosine (NBY) at 70
Consider B1, for which the Kd in test [1] came to 2 µM.

B2: IL-20R2D, Q6UXL0 30-233 (receptor)
chain: T2 chain
modifications: here or on the partner: designed disulfide Cys59-Cys117 (UniProt numbering)
With B2, the Kd in test [1] came to 0.005 µM; in test [2], 0.0096 µM.

B3: IL-20R2D Y70NBY + UV, Q6UXL0 30-233 (receptor)
chain: T2 chain
modifications: here or on the partner: UV-decaged, Tyr70 restored to canonical tyrosine; designed disulfide Cys59-Cys117
In the case of B3, in test [2], the Kd was 0.0076 µM.

B4: IL-24B4 (SUMO-cleaved, C-terminal Strep-tag), Q13007 52-206 (ligand)
chain: FHFGPCRVEGVVPQELWEAFWAVRDTLQAQDNITDVRLLRAEVLQNVSDAESCYLVHQLLRFYLDTVFKNYHNKTAELRTLKSFSTLANNFVLIVSDLQPCQEQNMCSSREEAHRRFLQFQRAFEQLDVEAAATKALGEIDILLTWMQKFYQL
modifications: here or on the partner: designed disulfide Cys59-Cys117 (UniProt numbering)
For the molecule B4, the Kd in [3] is 0.63 µM; in test [4] it was 0.57 µM; in [5] it was over 94 µM; in test [6], 0.43 µM; in test [7], 3.7 µM; in [8], 3.3 µM. In addition, the Kd in test [9] is 0.5 µM.
